Experimental data taken from the supplement of paper PMC9112550, “Optimization of the antimicrobial peptide Bac7 by deep mutational scanning” (BMC Biology, 2022).

tested on: Escherichia coli TOP10; test: shrunken log2 fold change of peptide-encoding DNA abundance (4.5 h post-induction vs induction); higher = less antimicrobial activity (less host growth inhibition); settings: time post-induction: 4.5 h; library: site-saturation at positions 5, 18, 19, 20
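Note: peptides expressed intracellularly from a pBAD plasmid library in pooled LB shake-flask culture, induced with 0.3% L-arabinose, DNA abundance read by NGS, three biological replicates, DESeq2 with apeglm shrinkage.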

In order of rising “shrunken log2 fold change” value:
1. RRIRCRPPRLPRPRPRPHCLPRP  -1.4
2. RRIRCRPPRLPRPRPRPHHMPRP  -1.36
3. RRIRCRPPRLPRPRPRPFYNPRP  -1.05
4. RRIRCRPPRLPRPRPRPGIKPRP  -0.876
5. RRIRCRPPRLPRPRPRPFTHPRP  -0.818
6. RRIRCRPPRLPRPRPRPIHNPRP  -0.725
7. RRIRCRPPRLPRPRPRPFLHPRP  -0.703
8. RRIRCRPPRLPRPRPRPDNQPRP  -0.696
9. RRIRCRPPRLPRPRPRPFTNPRP  -0.685
10. RRIRCRPPRLPRPRPRPHNHPRP  -0.625
11. RRIRCRPPRLPRPRPRPHFNPRP  -0.589
12. RRIRCRPPRLPRPRPRPFMGPRP  -0.585
13. RRIRCRPPRLPRPRPRPFIIPRP  -0.577
14. RRIRCRPPRLPRPRPRPFICPRP  -0.57
15. RRIRCRPPRLPRPRPRPFYLPRP  -0.564
16. RRIRCRPPRLPRPRPRPGQFPRP  -0.564
17. RRIRCRPPRLPRPRPRPFTQPRP  -0.559
18. RRIRCRPPRLPRPRPRPFRPPRP  -0.515
19. RRIRCRPPRLPRPRPRPFVEPRP  -0.507
20. RRIRCRPPRLPRPRPRPFYSPRP  -0.507
21. RRIRCRPPRLPRPRPRPIPCPRP  -0.489
22. RRIRCRPPRLPRPRPRPHTFPRP  -0.467
23. RRIRCRPPRLPRPRPRPDYTPRP  -0.442
24. RRIRCRPPRLPRPRPRPHMLPRP  -0.431
25. RRIRCRPPRLPRPRPRPFHQPRP  -0.429
26. RRIRCRPPRLPRPRPRPCWMPRP  -0.404
27. RRIRCRPPRLPRPRPRPFVKPRP  -0.4
28. RRIRCRPPRLPRPRPRPGFNPRP  -0.391
29. RRIRCRPPRLPRPRPRPHQIPRP  -0.389
30. RRIRCRPPRLPRPRPRPFPCPRP  -0.367
31. RRIRCRPPRLPRPRPRPGFQPRP  -0.356
32. RRIRCRPPRLPRPRPRPFAHPRP  -0.355
33. RRIRCRPPRLPRPRPRPFPFPRP  -0.353
34. RRIRCRPPRLPRPRPRPDKHPRP  -0.333
35. RRIRCRPPRLPRPRPRPHDVPRP  -0.314
36. RRIRCRPPRLPRPRPRPFLGPRP  -0.305
37. RRIRCRPPRLPRPRPRPDTNPRP  -0.285
38. RRIRCRPPRLPRPRPRPGYYPRP  -0.281
39. RRIRCRPPRLPRPRPRPHQNPRP  -0.276
40. RRIRCRPPRLPRPRPRPDIQPRP  -0.268
41. RRIRCRPPRLPRPRPRPGFSPRP  -0.257
42. RRIRCRPPRLPRPRPRPHCAPRP  -0.254
43. RRIRCRPPRLPRPRPRPFPTPRP  -0.249
44. RRIRCRPPRLPRPRPRPGLSPRP  -0.248
45. RRIRCRPPRLPRPRPRPHIPPRP  -0.245
46. RRIRCRPPRLPRPRPRPDFNPRP  -0.242
47. RRIRCRPPRLPRPRPRPDWYPRP  -0.241
48. RRIRCRPPRLPRPRPRPDHGPRP  -0.234
49. RRIRCRPPRLPRPRPRPFKCPRP  -0.232
50. RRIRCRPPRLPRPRPRPERNPRP  -0.223
51. RRIRCRPPRLPRPRPRPHKIPRP  -0.217
52. RRIRCRPPRLPRPRPRPGNTPRP  -0.205
53. RRIRCRPPRLPRPRPRPHHSPRP  -0.201
54. RRIRCRPPRLPRPRPRPFDTPRP  -0.192
55. RRIRCRPPRLPRPRPRPICIPRP  -0.191
56. RRIRCRPPRLPRPRPRPFPHPRP  -0.175
57. RRIRCRPPRLPRPRPRPHKWPRP  -0.174
58. RRIRCRPPRLPRPRPRPHPGPRP  -0.156
59. RRIRCRPPRLPRPRPRPDVKPRP  -0.153
60. RRIRCRPPRLPRPRPRPDQGPRP  -0.143
61. RRIRCRPPRLPRPRPRPFRHPRP  -0.143
62. RRIRCRPPRLPRPRPRPGEHPRP  -0.0986
63. RRIRCRPPRLPRPRPRPDCYPRP  -0.0924
64. RRIRCRPPRLPRPRPRPGYKPRP  -0.0902
65. RRIRCRPPRLPRPRPRPFCRPRP  -0.0846
66. RRIRCRPPRLPRPRPRPGHLPRP  -0.0824
67. RRIRCRPPRLPRPRPRPIAHPRP  -0.0801
68. RRIRCRPPRLPRPRPRPFDPPRP  -0.0744
69. RRIRCRPPRLPRPRPRPEHRPRP  -0.0739
70. RRIRCRPPRLPRPRPRPDEDPRP  -0.0684
71. RRIRCRPPRLPRPRPRPDFTPRP  -0.0655
72. RRIRCRPPRLPRPRPRPGYQPRP  -0.06
73. RRIRCRPPRLPRPRPRPEYWPRP  -0.0559
74. RRIRCRPPRLPRPRPRPIGRPRP  -0.0502
75. RRIRCRPPRLPRPRPRPIKKPRP  -0.0497
76. RRIRCRPPRLPRPRPRPHWVPRP  -0.0374
77. RRIRCRPPRLPRPRPRPEEQPRP  -0.0372
78. RRIRCRPPRLPRPRPRPETIPRP  -0.0356
79. RRIRCRPPRLPRPRPRPGMHPRP  -0.0345
80. RRIRCRPPRLPRPRPRPIHRPRP  -0.0331
81. RRIRCRPPRLPRPRPRPDHAPRP  -0.0323
82. RRIRCRPPRLPRPRPRPEERPRP  -0.0298
83. RRIRCRPPRLPRPRPRPIREPRP  -0.0298
84. RRIRCRPPRLPRPRPRPDFDPRP  -0.0217
85. RRIRCRPPRLPRPRPRPGHRPRP  -0.0213
86. RRIRCRPPRLPRPRPRPIQGPRP  -0.0195
87. RRIRCRPPRLPRPRPRPHRKPRP  -0.0176
88. RRIRCRPPRLPRPRPRPFRCPRP  -0.0165
89. RRIRCRPPRLPRPRPRPHANPRP  -0.0108
90. RRIRCRPPRLPRPRPRPEESPRP  -0.00538
91. RRIRCRPPRLPRPRPRPDKEPRP  -0.00172
92. RRIRCRPPRLPRPRPRPDTMPRP  0.00262
93. RRIRCRPPRLPRPRPRPFAQPRP  0.00363
94. RRIRCRPPRLPRPRPRPESNPRP  0.00481
95. RRIRCRPPRLPRPRPRPFHRPRP  0.00717
96. RRIRCRPPRLPRPRPRPHGEPRP  0.0148
97. RRIRCRPPRLPRPRPRPELRPRP  0.0185
98. RRIRCRPPRLPRPRPRPERRPRP  0.0271
99. RRIRCRPPRLPRPRPRPGDCPRP  0.0297
100. RRIRCRPPRLPRPRPRPDQHPRP  0.0432
101. RRIRCRPPRLPRPRPRPGRFPRP  0.0435
102. RRIRCRPPRLPRPRPRPDYIPRP  0.0495
103. RRIRCRPPRLPRPRPRPGLVPRP  0.0569
104. RRIRCRPPRLPRPRPRPFGHPRP  0.0616
105. RRIRCRPPRLPRPRPRPEPFPRP  0.0621
106. RRIRCRPPRLPRPRPRPDGEPRP  0.0622
107. RRIRCRPPRLPRPRPRPGFIPRP  0.067
108. RRIRCRPPRLPRPRPRPEFSPRP  0.072
109. RRIRCRPPRLPRPRPRPIPAPRP  0.0747
110. RRIRCRPPRLPRPRPRPGPHPRP  0.0758
111. RRIRCRPPRLPRPRPRPGTEPRP  0.078
112. RRIRCRPPRLPRPRPRPICVPRP  0.0832
113. RRIRCRPPRLPRPRPRPEHSPRP  0.0871
114. RRIRCRPPRLPRPRPRPHKRPRP  0.0953
115. RRIRCRPPRLPRPRPRPENEPRP  0.113
116. RRIRCRPPRLPRPRPRPESMPRP  0.114
117. RRIRCRPPRLPRPRPRPDFAPRP  0.115
118. RRIRCRPPRLPRPRPRPGTGPRP  0.119
119. RRIRCRPPRLPRPRPRPGQPPRP  0.126
120. RRIRCRPPRLPRPRPRPILAPRP  0.127
121. RRIRCRPPRLPRPRPRPFPRPRP  0.134
122. RRIRCRPPRLPRPRPRPDESPRP  0.153
123. RRIRCRPPRLPRPRPRPGKVPRP  0.181
124. RRIRCRPPRLPRPRPRPDCVPRP  0.184
125. RRIRCRPPRLPRPRPRPEHEPRP  0.188
126. RRIRCRPPRLPRPRPRPEYAPRP  0.204
127. RRIRCRPPRLPRPRPRPEAKPRP  0.208
128. RRIRCRPPRLPRPRPRPDSFPRP  0.211
129. RRIRCRPPRLPRPRPRPGEVPRP  0.212
130. RRIRCRPPRLPRPRPRPEQRPRP  0.23
131. RRIRCRPPRLPRPRPRPGETPRP  0.238
132. RRIRCRPPRLPRPRPRPHKKPRP  0.242
133. RRIRCRPPRLPRPRPRPCWRPRP  0.252
134. RRIRCRPPRLPRPRPRPGWDPRP  0.257
135. RRIRCRPPRLPRPRPRPDEAPRP  0.262
136. RRIRCRPPRLPRPRPRPEVAPRP  0.293
137. RRIRCRPPRLPRPRPRPERCPRP  0.302
138. RRIRCRPPRLPRPRPRPFAAPRP  0.308
139. RRIRCRPPRLPRPRPRPEGMPRP  0.422
140. RRIRCRPPRLPRPRPRPDAPPRP  0.515
141. RRIRCRPPRLPRPRPRPESWPRP  0.598
142. RRIRCRPPRLPRPRPRPEAQPRP  0.704
143. RRIRCRPPRLPRPRPRPGPRPRP  0.713
144. RRIRCRPPRLPRPRPRPELPPRP  0.762
145. RRIRCRPPRLPRPRPRPERTPRP  0.766
146. RRIRCRPPRLPRPRPRPEADPRP  0.819
147. RRIRCRPPRLPRPRPRPGPPPRP  0.942
148. RRIRCRPPRLPRPRPRPDAEPRP  1.03
149. RRIRCRPPRLPRPRPRPDATPRP  1.31
150. RRIRCRPPRLPRPRPRPGREPRP  2.28
